Where two headings read alike, the source gives them in different places. One block for each molecule: values may come before it.
Legend:
[1] = target: TGFBIp G623R peptide (23-amino acid peptide from the 4th FAS1 domain of TGFBIp with the substitution G623R); assay: cell-based or functional assay
Aβ (1-40) peptide [2] = test system: Aβ (1-40) peptide
[3] = test system: TGFBIp G623R peptide (23-amino acid peptide from the 4th FAS1 domain of TGFBIp with the substitution G623R)
Aβ (1-40) peptide [4] = assay: cell-based or functional assay
[5] = target: TGFBIp G623R peptide (23-amino acid peptide from the 4th FAS1 domain of TGFBIp with the substitution G623R); assay: cell-based or functional assay; remark: listed apart in the source

Molecule: RA L-PGDS (K58R+C65A double mutant of truncated L-PGDS)
- ThT disaggregation assay of mature Aβ (1-40) fibrils, 24 h (Aβ (1-40) peptide [2]): significant (p<0.05) retention of disaggregation activity across all L-PGDS mutants after 24 h of incubation
- ThT assay of Tau VK26 aggregation (100 µM peptide with 5 µM or 10 µM RA L-PGDS) (Tau peptide VK26): RA L-PGDS almost completely inhibited the aggregation of the Tau protein
- ThT fluorescence relative to untreated G623R fibrils after 48 h (disaggregation assay, 10 µM L-PGDS : 50 µM fibrils) [3]: 72.78%±20.42% (SD)
- fibril length from TEM micrographs after disaggregation treatment [3]: RA-L-PGDS treatment did indeed produce shorter fibrils as opposed to WT L-PGDS

Molecule: C65A L-PGDS (C65A single mutant of truncated L-PGDS)
- ThT disaggregation assay of mature Aβ (1-40) fibrils, 24 h (Aβ (1-40) peptide [2]): significant (p<0.05) retention of disaggregation activity across all L-PGDS mutants after 24 h of incubation
- ThT fluorescence relative to untreated G623R fibrils after 48 h (disaggregation assay, 10 µM L-PGDS : 50 µM fibrils) [3]: 70.56%±8.18% (SD)

Molecule: RA L-PGDS (K58R+C65A double mutant of truncated L-PGDS) (enzyme)
- ThT fluorescence relative to Aβ (1-40) control (inhibitory assay, 24 h) (Aβ (1-40) peptide [4]): 96.1%
- ThT fluorescence intensity relative to the G623R control after 48 h (fibrillation inhibition assay, 10 µM L-PGDS : 50 µM monomeric peptide) [1]: 51.4%

Now from value to molecule, other results behind:

- ThT fluorescence intensity relative to the G623R control after 48 h (fibrillation inhibition assay, 10 µM L-PGDS : 50 µM monomeric peptide) [1]: 102%
Molecule: C65A L-PGDS (C65A single mutant of truncated L-PGDS) (enzyme)

- ThT fluorescence intensity relative to the G623R control after 48 h (fibrillation inhibition assay, 10 µM L-PGDS : 50 µM monomeric peptide) [5]: 52.5%
B1: truncated human wild-type Lipocalin-type prostaglandin D synthase (L-PGDS) (enzyme, UniProt P41222 23-190, looked up)
Prostaglandin-H2 D-isomerase: APEAQVSVQPNFQQDKFLGRWFSAGLASNSSWLREKKAALSMCKSVVAPATDGGLNLTSTFLRKNQCETRTMLLQPAGSLGSYSYRSPHWGSTYSVSVVETDYDQYALLYSQGSKGPGEDFRMATLYSRTQTPRAELKEKFTAFCKAQGFTEDTIVFLPQTDKCMTEQ
modifications: C-terminal His6 tag
- ThT disaggregation assay of mature Aβ (1-40) fibrils, 24 h (Aβ (1-40) peptide [2]): significant (p<0.05) retention of disaggregation activity across all L-PGDS mutants after 24 h of incubation
- ThT fluorescence relative to untreated G623R fibrils after 48 h (disaggregation assay, 10 µM L-PGDS : 50 µM fibrils) [3]: 68.78%±18.20% (SD)
